24 molecules from patent US20260242478A1 (published 2026) can be followed below.

Where no end group is shown, it is not given here.

In assay [1] the target is T1, 006 PSMA Fab.
T1 construct: also called Anti-PSMA Fab
Description: phage binding ELISA; biotinylated PSMA Fab on neutravidin plate, clonal phage supernatant, anti-M13 HRP detection; blocking buffer alone.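 Note: before phage were added, wells were preincubated with blocking buffer either containing PSMA antigen or without it, and phage were then added with no wash in between.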 In general terms: An ELISA detects its analyte on a solid surface through an enzyme-linked reagent.
Description: (§1) Clonal phage were harvested as crude supernatants and screened via standard ELISAs. […] Prior to the addition of clonal phage. wells were incubated with blocking buffer and PSMA antigen or blocking buffer alone. Without washing or aspirating, clonal phage supernatants were then added to the wells and incubated for a short time. Wells were then washed followed by detection of bound phage using a horse radish conjugated anti-M13 antibody.

Assay [2] addresses T1, 006 PSMA Fab. In words: phage binding ELISA; biotinylated PSMA Fab on neutravidin plate pre-incubated with PSMA antigen as competitor, clonal phage supernatant, anti-M13 HRP detection.
Description: as §1
In a further assay the target is T2, PSMA Fab (006 PSMA Fab) (biotinylated (site not given)).
T2 construct: also called Anti-PSMA Fab; anti-PSMA Fab
In words: clonal phage ELISA; biotinylated PSMA Fab on neutravidin plate, blocking buffer alone; anti-M13 HRP detection.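 Note: crude clonal phage supernatants added without washing to wells pretreated with blocking buffer with or without PSMA antigen, short incubation, then washed before detecting bound phage.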

Description for PSMA Fab (006 PSMA Fab): as §1

B1: Phage-2697 (peptide)
peptide: FVKWCTPSWMCESQ
Regarding B1, the “Phage binding ELISA signal, Anti-PSMA Fab” value with 006 PSMA Fab [1] is 0.828. Further, the “Phage binding ELISA signal, Anti-PSMA Fab with PSMA antigen” value with 006 PSMA Fab [2] came out at 0.0785.

B2: Phage-2701 (peptide)
peptide: DNMLCRPSWMCEGL
As for B2, the “Phage binding ELISA signal, Anti-PSMA Fab” value with 006 PSMA Fab [1] was 0.816. Moreover, the “Phage binding ELISA signal, Anti-PSMA Fab with PSMA antigen” value in the assay with 006 PSMA Fab [2] was found to be 0.0762.

B3: Phage-2708 (peptide)
peptide: MDRWCTPAWMCEVH
Regarding B3, in the assay with 006 PSMA Fab [1], the “Phage binding ELISA signal, Anti-PSMA Fab” value came to 0.794. In addition, the “Phage binding ELISA signal, Anti-PSMA Fab with PSMA antigen” value with 006 PSMA Fab [2] was found to be 0.0734.

B4: Phage-2696 (peptide)
peptide: EEMWCIPVWMCEHQ
For the molecule B4, the “Phage binding ELISA signal, Anti-PSMA Fab” value with 006 PSMA Fab [1] was 0.829. In the assay with 006 PSMA Fab [2], the “Phage binding ELISA signal, Anti-PSMA Fab with PSMA antigen” value is 0.0935.

B5: Phage-2692 (peptide)
peptide: MEKWCIPQWMCEQF
modifications: cysteine pairing not given here; also: displayed on bacteriophage as fusion to pIII, fusion and linker not given here
notes: Tested as clonal phage supernatant; also called Peptide-180 library clone
With B5, the “Phage binding ELISA signal, Anti-PSMA Fab” value with PSMA Fab (006 PSMA Fab) turned out to be 0.834.

B6: Phage-2686 (peptide)
peptide: QNIRCVPPWMCENL
modifications: cysteine pairing not given here; also: displayed on bacteriophage as fusion to pIII, fusion and linker not given here
notes: as for B5
Regarding B6, in the assay with PSMA Fab (006 PSMA Fab), the “Phage binding ELISA signal, Anti-PSMA Fab” value turned out to be 0.844.

B7: Phage-2687 (peptide)
peptide: VHYWCIPAWMCNKS
modifications: cysteine pairing not given here; also: displayed on bacteriophage as fusion to pIII, fusion and linker not given here
notes: as for B5
Turning to B7, the “Phage binding ELISA signal, Anti-PSMA Fab” value with PSMA Fab (006 PSMA Fab) was determined as 0.841.

B8: Phage-2693 (peptide)
peptide: MGNWCTPSWMCEGL
modifications: cysteine pairing not given here; also: displayed on bacteriophage as fusion to pIII, fusion and linker not given here
notes: as for B5
For B8, the “Phage binding ELISA signal, Anti-PSMA Fab” value with PSMA Fab (006 PSMA Fab) came out at 0.833.

B9: Phage-2703 (peptide)
peptide: TIKWCTPSWMCAEI
modifications: cysteine pairing not given here; also: displayed on bacteriophage as fusion to pIII
As for B9, the “Phage binding ELISA signal, Anti-PSMA Fab” value with 006 PSMA Fab [1] was 0.811. Also, the “Phage binding ELISA signal, Anti-PSMA Fab with PSMA antigen” value in the assay with 006 PSMA Fab [2] stood at 0.105.

B10: Phage-2704 (peptide)
peptide: VGNWCIPLWMCAAE
modifications: cysteine pairing not given here; also: displayed on bacteriophage as fusion to pIII
Turning to B10, the “Phage binding ELISA signal, Anti-PSMA Fab” value with 006 PSMA Fab [1] worked out at 0.81. The “Phage binding ELISA signal, Anti-PSMA Fab with PSMA antigen” value with 006 PSMA Fab [2] was found to be 0.0867.

B11: Phage-2707 (peptide)
peptide: DHKWCTPPWMCAAD
modifications: cysteine pairing not given here; also: displayed on bacteriophage as fusion to pIII
Turning to B11, the “Phage binding ELISA signal, Anti-PSMA Fab” value with 006 PSMA Fab [1] was 0.797. Further, the “Phage binding ELISA signal, Anti-PSMA Fab with PSMA antigen” value in the assay with 006 PSMA Fab [2] turned out to be 0.0877.

B12: Phage-2691 (peptide)
peptide: IVKWCTPPWMCERP
modifications: cysteine pairing not given here; also: displayed on bacteriophage as fusion to pIII, fusion and linker not given here
notes: as for B5
As for B12, in the assay with PSMA Fab (006 PSMA Fab), the “Phage binding ELISA signal, Anti-PSMA Fab” value came out at 0.834.

B13: Phage-2694 (peptide)
peptide: GEKWCTPLWMCEWY
modifications: cysteine pairing not given here; also: displayed on bacteriophage as fusion to pIII, fusion and linker not given here
notes: as for B5
Turning to B13, in the assay with PSMA Fab (006 PSMA Fab), the “Phage binding ELISA signal, Anti-PSMA Fab” value stood at 0.832.

B14: Phage-2706 (peptide)
peptide: DYKWCTPPWMCYSA
As to B14, the “Phage binding ELISA signal, Anti-PSMA Fab” value in the assay with 006 PSMA Fab [1] was determined as 0.804. In addition, in the assay with 006 PSMA Fab [2], the “Phage binding ELISA signal, Anti-PSMA Fab with PSMA antigen” value came out at 0.0621.

B15: Phage-2690 (peptide)
peptide: LVKWCTPTWMCVGM
modifications: cysteine pairing not given here; also: displayed on bacteriophage as fusion to pIII, fusion and linker not given here
notes: as for B5
As to B15, the “Phage binding ELISA signal, Anti-PSMA Fab” value in the assay with PSMA Fab (006 PSMA Fab) came out at 0.837.

B16: Phage-2688 (peptide)
peptide: EAHLCKPLWMCEFG
modifications: cysteine pairing not given here; also: displayed on bacteriophage as fusion to pIII, fusion and linker not given here
notes: as for B5
For B16, the “Phage binding ELISA signal, Anti-PSMA Fab” value in the assay with PSMA Fab (006 PSMA Fab) turned out to be 0.84.

B17: Phage-2702 (peptide)
peptide: QVPWCTPAWMCERA
For the molecule B17, the “Phage binding ELISA signal, Anti-PSMA Fab” value with 006 PSMA Fab [1] came out at 0.814. Further, the “Phage binding ELISA signal, Anti-PSMA Fab with PSMA antigen” value in the assay with 006 PSMA Fab [2] was found to be 0.126.

B18: Phage-2695 (peptide)
peptide: HWRMCVPTWMCHLD
modifications: cysteine pairing not given here; also: displayed on bacteriophage as fusion to pIII
Turning to B18, the “Phage binding ELISA signal, Anti-PSMA Fab” value in the assay with 006 PSMA Fab [1] turned out to be 0.83. For the same molecule, in the assay with 006 PSMA Fab [2], the “Phage binding ELISA signal, Anti-PSMA Fab with PSMA antigen” value was 0.15.

B19: Phage-2709 (peptide)
peptide: PDNWCIPAWMCERF
As to B19, the “Phage binding ELISA signal, Anti-PSMA Fab” value with 006 PSMA Fab [1] came out at 0.793. Also, in the assay with 006 PSMA Fab [2], the “Phage binding ELISA signal, Anti-PSMA Fab with PSMA antigen” value came to 0.0679.

B20: Phage-2698 (peptide)
peptide: DNKMCIPVWMCERF
In the case of B20, the “Phage binding ELISA signal, Anti-PSMA Fab” value with 006 PSMA Fab [1] is 0.824. Further, the “Phage binding ELISA signal, Anti-PSMA Fab with PSMA antigen” value with 006 PSMA Fab [2] stood at 0.0685.

B21: Phage-2699 (peptide)
peptide: GSHWCEPLWMCSAF
Turning to B21, the “Phage binding ELISA signal, Anti-PSMA Fab” value with 006 PSMA Fab [1] is 0.824. Besides, the “Phage binding ELISA signal, Anti-PSMA Fab with PSMA antigen” value with 006 PSMA Fab [2] came to 0.0853.

B22: Phage-2705 (peptide)
peptide: EQMWCTPAWMCTGF
Take B22: the “Phage binding ELISA signal, Anti-PSMA Fab” value in the assay with 006 PSMA Fab [1] was determined as 0.81. In the assay with 006 PSMA Fab [2], the “Phage binding ELISA signal, Anti-PSMA Fab with PSMA antigen” value came to 0.0782.

B23: Phage-2689 (peptide)
peptide: IKPLCSPPWMCSMY
modifications: cysteine pairing not given here; also: displayed on bacteriophage as fusion to pIII, fusion and linker not given here
notes: as for B5
In the case of B23, the “Phage binding ELISA signal, Anti-PSMA Fab” value in the assay with PSMA Fab (006 PSMA Fab) is 0.839.

B24: Phage-2700 (peptide)
peptide: IEKWCTPPWMCESS
For B24, the “Phage binding ELISA signal, Anti-PSMA Fab” value in the assay with 006 PSMA Fab [1] worked out at 0.824. Further, the “Phage binding ELISA signal, Anti-PSMA Fab with PSMA antigen” value in the assay with 006 PSMA Fab [2] is 0.104.
